According to patent US20230095569A1 (ANTENGENE BIOLOGICS, published 2023):
Positions count from the first letter of the chain named.

B1: chAb15 (antibody, V domains shown)
VH: EVMLVESGGDLVKPGGSLKLSCAASGFTFSTYTMSWVRQTPEKRLEWVATIVGGGGYTYYLDSVKGRFTISRDNAKNTLYLQMISLRSEDTALYYCARMGLTQRNALDYWGQGTSITVSS
VL: DIVMTQSPSSLSVSEGEKVTLNCKSSQSLFNSGNQKNYLAWYQQKPGQPPKLLIYGASTRESGVPDRFTGSGFGTDFTLTISSVQAEDLAVYYCQNDHTYPLTFGAGAKLELK
B2: Ab10 (antibody, V domains shown)
VH: EVMLVESGGGLVKPGGSLKLSCAASGFTFSSYTMSWVRQTPEKRLEWVATISVIGGNTYYVDSVKGRFTISRDKAKNTLYLQMSSLRSEDTALYYCARLGQTQRNAMDYWGQGTSVTVSS
VL: B1 VL with E15A, L21M, N22S, F30L, F73S, H98Y, T99S, A108T
notes: mouse monoclonal (hybridoma)

Legend:
[1] = target: T1, human Claudin18.2 (CLDN18.2) (human, UniProt P56856 1-261); assay: cell-based or functional assay
[2] = target: T1, human Claudin18.2 (CLDN18.2); assay: cell-based or functional assay; remark: listed apart in the source
[3] = target: T1, human Claudin18.2 (CLDN18.2); assay: FACS on GAXC031 cells
[4] = target: T1, human Claudin18.2 (CLDN18.2); assay: cell-based or functional assay; remark: listed apart in the source
[5] = target: T1, human Claudin18.2 (CLDN18.2); assay: FACS on CHOK1-18.2 cells, antibody at 50 µg/ml
[6] = target: T1, human Claudin18.2 (CLDN18.2); assay: FACS on CHOK1-18.2 cells;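 for FACS MFI: antibody binding to the cells detected with a fluorescently labelled secondary antibody and read out as median fluorescence intensity by flow cytometry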
[7] = target: T1, human Claudin18.2 (CLDN18.2); assay: FACS on GAXC031 cells, antibody at 50 µg/ml
[8] = target: T2, human Claudin18.1 (CLDN18.1) (human, UniProt P56856 1-261); assay: FACS on CHOK1-18.1 cells;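 note: test antibody binding to the cells detected by flow cytometry using a fluorescent dye-labelled secondary antibody, read out as median fluorescence intensity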
T2 construct: whole, on cells; also called human Claudine18.1
Description: (§1) The specificity and cross-reactivity of these subclones were confirmed with FACs analysis. […] Fluorescent dye-conjugated secondary antibody was used to detect the binding of the primary antibody with the cells. Median fluorescence intensity (MFI) was measured by FACs analysis.

[9] = target: T2, human Claudin18.1 (CLDN18.1); assay: FACS (FIGS. 1A and 1B)
[10] = target: T1, human Claudin18.2 (CLDN18.2); assay: FACS on CHOK1-18.2 cells; remark: listed apart in the source;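 for FACS MFI: antibody binding to the cells detected with a fluorescently labelled secondary antibody and read out as median fluorescence intensity by flow cytometry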
Description: as §1

| Binder | IC50 of indirect ADC cytotoxicity [1] | Max inhibition % [1] | ADCC EC50 [2] | Max tumor cell killing (% of control), ADCC [2] | EC50 [3] | CDC EC50 [4] | Max CDC induced tumor cell killing (% of control) [4] | MAX MFI [5] | EC50 [6] | MAX MFI [7] | FACS MFI [8] | binding result [9] | FACS MFI [10] |
| --- | --- | --- | --- | --- | --- | --- | --- | --- | --- | --- | --- | --- | --- |
| B1 | 0.38 nM | 92.4% | 2.65 nM | 36.5 % of control | 31.9 nM | 8.15 nM | 77.4 % of control | 94000 | 4.64 nM | 6110 | – | – | – |
| B2 | – | – | – | – | – | – | – | – | – | – | 80.8 | no binding | 8400 |
